From paper PMC2820081

Target: endogenous optineurin (rat (endogenous in RGC5)) (UniProt Q8R5M4)
Test: native gel or EMSA; native blue gel electrophoresis (NativePAGE Novex Bis-Tris gel) of lysates in IP buffer from RGC5 cells or RGC5 cells transfected with pTarget-FLAG-OPTN, non-reducing; Western blot with anti-C-terminal optineurin or anti-FLAG

stoichiometry N: 6
Substance: endogenous optineurin (from UniProt Q8R5M4 1-585) (natural protein)
